Laboratory results published in patent publication US20240277762A1 (published 2024).

What was measured:
[1] = target: T1, PRAME peptide on HLA-A*02:01 (human); test: killing
T1 peptide: SLLQHLIGL

[2] = target: T2, PRAME peptide on HLA-A*02:02 (human); test: cytokine release
T2 peptide: SLLQHLIGL

[3] = target: T3, PRAME peptide on HLA-A*02:04 (human); test: cytokine release
T3 peptide: SLLQHLIGL

[4] = target: T4, PRAME peptide on HLA-A*02:09 (human); test: cytokine release
T4 peptide: SLLQHLIGL

Measured: binding result

B1: T23.8-2.1-027-004 (TCR, V domains shown)
Valpha: GQQLNQSPQSMFIQEGEDVSMNCTSSSIFNTWLWYKQDPGEGPVLLIALYKAGELTSNGRLTAQFGITRKDSFLNISASIPSDVGIYFCAGLADYGGSQGNLIFGKGTKLSVKP
Vbeta: DSGVTQTPKHLITATGQRVTLRCSPRSGDLSVYWYQQSLDQGLQFLIQYYNGEERAKGNILERFSAQQFPDLHSELNLSSLELGDSALYFCASSVWASGGYEQYFGPGTRLTVT
recognises: all assays above
